Test results published in the supplement of paper PMC10126150.
± gives the standard deviation of the averaged measurements.

These sequences were tested on ATP (assay: switch fluorescence ratio, 500 uM ATP over buffer (Cy3 cluster intensity, sum of 5 cycles each) (fold (ratio)); higher = stronger signal-on switching upon ATP binding; sequences stand for … in TCGTCGGCAGCGTCAGATGTGTATAAGAGACAGTTTTTTTTTTTTTTTTTTTTTTTTT…TC). Details: aptamer strand: ATP DNA aptamer (quencher-CACCTGGGGGAGTATTGCGGAGGAAGG + anchor), 100 nM annealed; ATP concentration: 500 uM.
How it was run: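 Five buffer/ATP imaging cycles were run on Cy3-labelled switching-strand clusters on a modified Illumina MiSeq flow-cell, with NaOH stripping and re-annealing between cycles. In each cycle, clusters annealed to 100 nM quencher-labelled ATP aptamer were imaged in selection buffer, then after 15 min with 500 uM ATP at 22 °C. Per cluster, the fluorescence ratio is summed target-cycle over summed buffer-cycle Cy3 intensity, averaged per switch-domain sequence. Only clusters within 100-1000 RFU were kept.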
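Note: ATP exposure 15 min at 22 °C before imaging.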

Sequence | switch fluorescence ratio
GAATGGCACA | 0.998 ± 0.016
GAATGGGGAA | 1.02 ± 0.021
GAATGGGGCT | 0.987 ± 0.037
GAATGGGGGA | 1.02 ± 0.019
GAATGGGTCG | 0.989 ± 0.033
GAATGGGTTG | 1.01 ± 0.028
GAATGTAGCA | 1.03 ± 0.011
GAATGTAGGG | 0.967 ± 0.046
GAATGTCCGT | 0.992 ± 0.015
GAATGTGCAT | 1.05 ± 0.047
GAATGTGGGG | 0.982 ± 0.019
GAATGTTCGG | 0.999 ± 0.051
GAATGTTCTT | 1.0298 ± 6.1e-05
GAATTAAACG | 1.02 ± 0.024
GAATTAAATG | 1.037 ± 0.0019
GAATTAGGTG | 1.21 ± 0.029
GAATTATATT | 0.988 ± 0.021
GAATTCAGGG | 0.99 ± 0.014
GAATTCAGTG | 0.9953 ± 0.0096
GAATTGAGAA | 0.972 ± 0.035
GAATTGGAAG | 0.968 ± 0.025
GAATTGTATT | 0.993 ± 0.06
GAATTTAGCA | 1.02 ± 0.031
GAATTTGAGT | 0.9741 ± 0.0089
GAATTTGTTG | 1.001 ± 0.0063

Sequence | switch fluorescence ratio
GAATTTTCGC | 0.995 ± 0.029
GAATTTTGGG | 1 ± 0.032
GACAACGTA | 0.9967 ± 0.0095
GACAATTTCT | 1.02 ± 0.072
GACACACCCG | 1.13 ± 0.046
GACACCATCC | 1.55 ± 0.18
GACACGAGGT | 1.013 ± 0.0084
GACACGGGGA | 1.01 ± 0.041
GACAGACGGG | 1.13 ± 0.049
GACAGAGGTG | 1.03 ± 0.031
GACAGCAGGG | 1.03 ± 0.025
GACAGGGGGA | 1.035 ± 0.0072
GACAGGTGAG | 1.15 ± 0.058
GACAGTCTCA | 1.02 ± 0.021
GACAGTGGTA | 0.973 ± 0.013
GACAGTTTGT | 1.01 ± 0.033
GACATAAATG | 1.03 ± 0.12
GACATAGACC | 1.048 ± 0.0075
GACATTTTGC | 1.05 ± 0.028
GACCAAAGGG | 1.03 ± 0.058
GACCAAATTT | 1.02 ± 0.064
GACCACAGCG | 1.02 ± 0.029
GACCAGGTTA | 1.181 ± 0.0052
GACCATGGCA | 1.01 ± 0.045
GACCCTGATC | 1.17 ± 0.058

Sequence | switch fluorescence ratio
GACCGATTTT | 0.989 ± 0.015
GACCGGGTAA | 1.02 ± 0.033
GACCGTTGGA | 0.987 ± 0.037
GACCGTTTGA | 1.03 ± 0.03
GACCTAAGGT | 0.988 ± 0.035
GACCTCACAT | 1.18 ± 0.022
GACCTGTAAT | 1.025 ± 0.0013
GACCTGTTTT | 0.987 ± 0.063
GACCTTGATT | 1.03 ± 0.029
GACCTTGTGC | 1.03 ± 0.042
GACGAATGGG | 0.985 ± 0.015
GACGACGTTA | 1.55 ± 0.026
GACGAGATAG | 1.17 ± 0.076
GACGAGCGGG | 1 ± 0.025
GACGAGGG | 1.03 ± 0.038
GACGATACGT | 1.14 ± 0.038
GACGATCCTG | 1.08 ± 0.043
GACGATGACG | 0.987 ± 0.014
GACGCACTAA | 2.76 ± 0.44
GACGCAGGTG | 2.5 ± 0.24
GACGCGCGTA | 1.01 ± 0.027
GACGCTGTGC | 3.6 ± 0.41
GACGGAGGGG | 1.01 ± 0.027
GACGGATTTA | 0.988 ± 0.035
GACGGCGCTG | 0.957 ± 0.049

Sequence | switch fluorescence ratio
GACGGCTCAG | 1 ± 0.015
GACGGGGAGA | 1.06 ± 0.038
GACGGGGTGT | 1.059 ± 0.0039
GACGGGTGAG | 0.9917 ± 0.0087
GACGGGTGGC | 1.11 ± 0.02
GACGGGTTTC | 0.991 ± 0.017
GACGTAAAAG | 1.097 ± 0.0096
GACGTAAATA | 1.75 ± 0.18
GACGTAACGG | 1.082 ± 0.0014
GACGTAAGTT | 1.02 ± 0.018
GACGTGGAAG | 1.01 ± 0.024
GACGTGTGTC | 0.983 ± 0.023
GACGTTATTG | 1.03 ± 0.013
GACGTTCATA | 1.083 ± 0.0089
GACGTTGAGG | 0.983 ± 0.023
GACGTTGCTA | 1.06 ± 0.019
GACGTTTCAG | 0.95 ± 0.02
GACGTTTGGG | 0.982 ± 0.022
GACGTTTTAG | 0.993 ± 0.052
GACGTTTTTA | 1.01 ± 0.046
GACTAAGTTT | 1.018 ± 0.0076
GACTAATGAT | 1.02 ± 0.024
GACTAATTGG | 0.957 ± 0.013
GACTACATTA | 1.03 ± 0.025
GACTACGGCC | 1.049 ± 0.0065

Sequence | switch fluorescence ratio
GACTAGGCGG | 1.12 ± 0.2
GACTAGTATA | 1.01 ± 0.04
GACTATTAGC | 0.984 ± 0.028
GACTCAGAGG | 1.03 ± 0.011
GACTCCTGAG | 0.98 ± 0.033
GACTGACTGG | 0.996 ± 0.018
GACTGGAGGA | 0.9851 ± 0.008
GACTGGGGCA | 1.017 ± 0.0053
GACTGGTTGC | 1 ± 0.053
GACTGTCGGC | 1.02 ± 0.024
GACTGTTAGG | 1.03 ± 0.016
GACTTAGGAC | 1.02 ± 0.021
GACTTAGGTA | 0.975 ± 0.027
GACTTATCCT | 1.054 ± 0.004
GACTTCCAGG | 1.05 ± 0.026
GACTTCTTAG | 0.9573 ± 0.0041
GACTTTAAGC | 1.01 ± 0.032
GACTTTACTG | 1.06 ± 0.049
GACTTTTAGG | 1.01 ± 0.027
GACTTTTATA | 0.996 ± 0.026
GAGAAAACCG | 1.06 ± 0.092
GAGAAAATTT | 0.989 ± 0.043
GAGAAAGGGG | 1.06 ± 0.14
GAGAAAGGTG | 1.09 ± 0.022
GAGAAAGTGG | 0.9924 ± 0.001

Sequence | switch fluorescence ratio
GAGAAATTGG | 1 ± 0.022
GAGAAGGGAG | 0.9895 ± 0.0055
GAGAATCGGT | 1.03 ± 0.078
GAGAATGGCA | 0.964 ± 0.028
GAGAATTGGG | 1.02 ± 0.061
GAGACAGTTA | 0.992 ± 0.014
GAGACCCGTG | 0.9867 ± 0.0059
GAGACGTTTG | 1.02 ± 0.054
GAGACTAGGT | 1.04 ± 0.025
GAGACTGGTT | 1.03 ± 0.034
GAGAGAAAAT | 1.49 ± 0.63
GAGAGAGGTG | 1.0377 ± 0.00093
GAGAGATAGT | 1.03 ± 0.015
GAGAGGGTAT | 0.966 ± 0.012
GAGAGGGTTG | 0.971 ± 0.033
GAGAGTATGT | 0.998 ± 0.043
GAGAGTCCTT | 0.997 ± 0.015
GAGAGTCTAG | 0.989 ± 0.015
GAGAGTTTTC | 0.985 ± 0.037
GAGATACTCT | 1.03 ± 0.012
GAGATAGTAG | 1 ± 0.015
GAGATCATTG | 1.07 ± 0.057
GAGATGGCAT | 0.987 ± 0.04
GAGATGGGGA | 0.991 ± 0.022
GAGATGGGTA | 0.997 ± 0.027

Sequence | switch fluorescence ratio
GAGATTAGGT | 0.977 ± 0.015
GAGATTGCGG | 0.9849 ± 0.0012
GAGATTTGAC | 1.01 ± 0.025
GAGCAATATA | 5.13 ± 1.7
GAGCAATGTG | 1.22 ± 0.3
GAGCAGTGCA | 1.03 ± 0.037
GAGCATTCCG | 1.003 ± 0.0051
GAGCCGGAGC | 0.993 ± 0.012
GAGCGACCTG | 0.989 ± 0.016
GAGCGAGGAA | 0.98171 ± 0.00093
GAGCGAGGGA | 1.14 ± 0.052
GAGCGCGAGG | 0.99 ± 0.037
GAGCGTAACG | 0.9999 ± 0.0027
GAGCGTGGGA | 1.11 ± 0.081
GAGCTACTGA | 1.011 ± 0.0085
GAGCTATCAC | 1.16 ± 0.035
GAGCTATGTG | 1.03 ± 0.0011
GAGCTGGTGG | 0.96 ± 0.019
GAGCTTACGG | 1.064 ± 0.01
GAGCTTCTTG | 1.017 ± 0.0063
GAGGAAAAAT | 1.062 ± 0.0021
GAGGAAGGAC | 1.04 ± 0.014
GAGGACTCGT | 1.01 ± 0.016
GAGGAGGTTT | 0.968 ± 0.017
GAGGATATGT | 0.971 ± 0.035

Sequence | switch fluorescence ratio
GAGGATCAGG | 1.03 ± 0.056
GAGGATCTTG | 1 ± 0.031
GAGGATGATC | 1.01 ± 0.032
GAGGATGGGA | 0.98 ± 0.022
GAGGCCATTT | 1.01 ± 0.046
GAGGCCGTTG | 1.02 ± 0.023
GAGGCGAGTC | 1.06 ± 0.029
GAGGCGGGGA | 1.01 ± 0.03
GAGGCGTATT | 0.988 ± 0.049
GAGGCGTCAA | 0.997 ± 0.027
GAGGCTAGGG | 1.05 ± 0.031
GAGGCTAGGT | 1.01 ± 0.029
GAGGCTATGG | 1.01 ± 0.022
GAGGCTCATT | 0.964 ± 0.035
GAGGCTTAAT | 0.9822 ± 0.0078
GAGGCTTTTT | 0.979 ± 0.024
GAGGGAAAAG | 1.01 ± 0.032
GAGGGAAGTA | 1.06 ± 0.17
GAGGGACGGG | 1.02 ± 0.025
GAGGGAGGTG | 1.02 ± 0.018
GAGGGAGTGG | 1.01 ± 0.037
GAGGGATTCT | 0.99037 ± 0.00064
GAGGGATTTT | 1.02 ± 0.017
GAGGGCAATC | 2.76 ± 0.64
GAGGGCAATG | 1.22 ± 0.067
